Assay results from patent US6759239.

Biological target: CD40 on APCs (CD2-depleted human PBMC) (human) (UniProt P25942)
Assay: cell-based or functional assay

UniProt P25942, sequence (P25942 21-277): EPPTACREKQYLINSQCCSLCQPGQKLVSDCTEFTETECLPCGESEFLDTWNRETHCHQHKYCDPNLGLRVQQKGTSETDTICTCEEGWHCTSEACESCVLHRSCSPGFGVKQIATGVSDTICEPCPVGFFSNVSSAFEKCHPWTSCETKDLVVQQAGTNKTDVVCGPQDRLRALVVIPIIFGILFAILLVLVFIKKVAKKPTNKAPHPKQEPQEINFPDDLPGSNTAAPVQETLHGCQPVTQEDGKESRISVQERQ

% Positive APCs for CD40 after 24 h with D1.1 cells (APC alone: 99(203)) [%] | % Positive APCs for CD54 after 24 h with D1.1 cells (APC alone: 60(350)) [%] | % Positive APCs for CD58 after 24 h with D1.1 cells (APC alone: 42(374)) [%] | % Positive APCs for CD80 after 24 h with D1.1 cells (APC alone: 17(90)) [%] | % Positive APCs for CD86 after 24 h with D1.1 cells (APC alone: 35(318)) [%] | MFI of CD40 on APCs after 24 h with D1.1 cells (APC alone: 99(203)) (scale: MFI) | MFI of CD54 on APCs after 24 h with D1.1 cells (APC alone: 60(350)) (scale: MFI) | MFI of CD58 on APCs after 24 h with D1.1 cells (APC alone: 42(374)) (scale: MFI) | MFI of CD80 on APCs after 24 h with D1.1 cells (APC alone: 17(90)) (scale: MFI) | MFI of CD86 on APCs after 24 h with D1.1 cells (APC alone: 35(318)) (scale: MFI) | % Positive APCs for CD40 after 48 h with CD40 mAb on CD32+ L cells plus IL-4 (APC alone: 99(231)) [%] | % Positive APCs for CD54 after 48 h with CD40 mAb on CD32+ L cells plus IL-4 (APC alone: 65(283)) [%] | % Positive APCs for CD80 after 48 h with CD40 mAb on CD32+ L cells plus IL-4 (APC alone: 16(78)) [%] | % Positive APCs for CD86 after 48 h with CD40 mAb on CD32+ L cells plus IL-4 (APC alone: 30(310)) [%] | MFI of CD40 on APCs after 48 h with CD40 mAb on CD32+ L cells plus IL-4 (APC alone: 99(231)) (scale: MFI) | MFI of CD54 on APCs after 48 h with CD40 mAb on CD32+ L cells plus IL-4 (APC alone: 65(283)) (scale: MFI) | MFI of CD58 on APCs after 48 h with CD40 mAb on CD32+ L cells plus IL-4 (APC alone: 40(315)) (scale: MFI) | MFI of CD80 on APCs after 48 h with CD40 mAb on CD32+ L cells plus IL-4 (APC alone: 16(78)) (scale: MFI) | MFI of CD86 on APCs after 48 h with CD40 mAb on CD32+ L cells plus IL-4 (APC alone: 30(310)) (scale: MFI) | Substance
99 | 85 | 70 | 41 | 49 | 312 | 358 | 380 | 141 | 327 | – | – | – | – | – | – | – | – | – | CD40L constitutively expressed on the D1.1 Jurkat T cell line (from UniProt P29965 1-261) (ligand)
– | – | – | – | – | – | – | – | – | – | 99 | 97 | 31 | 63 | 430 | 443 | 458 | 109 | 464 | mAb CD40 G28-5 (antibody)
